The values that follow come from US20170066836A1 (NATIONAL UNIVERSITY CORPORATION KOCHI UNIVERSITY, published 2017).

Assay [1] concerns the target T1, recombinant Glypican-1 (R&D systems 4519-GP-050) (Homo sapiens (Human), UniProt P35052 24-530).
T1 construct: Bought protein
T1 sequence: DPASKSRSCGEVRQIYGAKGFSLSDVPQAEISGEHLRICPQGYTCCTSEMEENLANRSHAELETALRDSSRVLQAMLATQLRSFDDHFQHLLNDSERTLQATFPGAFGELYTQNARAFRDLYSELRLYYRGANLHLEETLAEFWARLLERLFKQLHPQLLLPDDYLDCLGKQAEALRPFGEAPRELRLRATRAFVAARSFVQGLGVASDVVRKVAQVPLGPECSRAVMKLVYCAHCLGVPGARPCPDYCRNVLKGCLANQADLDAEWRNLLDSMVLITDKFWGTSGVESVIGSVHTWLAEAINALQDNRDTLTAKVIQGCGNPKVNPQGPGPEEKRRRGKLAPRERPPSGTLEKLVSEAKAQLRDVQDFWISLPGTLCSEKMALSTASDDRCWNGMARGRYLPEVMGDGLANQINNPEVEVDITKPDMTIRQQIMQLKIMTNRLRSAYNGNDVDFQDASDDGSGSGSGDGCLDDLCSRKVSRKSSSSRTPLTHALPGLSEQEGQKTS
Nature of the assay: Biacore 3000 (SPR): antibody captured on rabbit anti-mouse IgG on a CM5 chip, recombinant Glypican-1 added at various concentrations; BIAevaluation 4.1. The protocol:
(§1) Affinity analysis of an anti-Glypican-1 antibody was measured using Biacore 3000. A rabbit anti-mouse IgG polyclonal antibody of the Mouse Antibody Capture Kit was solid-phased to a CM5 sensor tip, various anti-Glypican1 antibody clones were captured, recombinant Glypican-1 (R&D systems 4519-GP-050) was added at various concentrations as a ligand, and binding and dissociation were monitored. The obtained sensorgram was analyzed using BIAevaluation 4.1 software and a KD value was calculated (FIG. 12).
For orientation: Surface plasmon resonance follows binding to a sensor surface in real time, without labels.

In assay [2] the target is T1, recombinant Glypican-1 (R&D systems …). Nature of the assay: SPR (Biacore 3000): antibody captured by rabbit anti-mouse IgG on a CM5 chip, recombinant Glypican-1 added at various concentrations. The protocol:
as §1

Assay [3] deals with T2, mouse Glypican-1 expressed on 293 cells (mouse, UniProt Q9QZF2 24-529).
T2 construct: whole, on cells; also called mouse GPC-1; mouse GPC1
T2 sequence (looked up): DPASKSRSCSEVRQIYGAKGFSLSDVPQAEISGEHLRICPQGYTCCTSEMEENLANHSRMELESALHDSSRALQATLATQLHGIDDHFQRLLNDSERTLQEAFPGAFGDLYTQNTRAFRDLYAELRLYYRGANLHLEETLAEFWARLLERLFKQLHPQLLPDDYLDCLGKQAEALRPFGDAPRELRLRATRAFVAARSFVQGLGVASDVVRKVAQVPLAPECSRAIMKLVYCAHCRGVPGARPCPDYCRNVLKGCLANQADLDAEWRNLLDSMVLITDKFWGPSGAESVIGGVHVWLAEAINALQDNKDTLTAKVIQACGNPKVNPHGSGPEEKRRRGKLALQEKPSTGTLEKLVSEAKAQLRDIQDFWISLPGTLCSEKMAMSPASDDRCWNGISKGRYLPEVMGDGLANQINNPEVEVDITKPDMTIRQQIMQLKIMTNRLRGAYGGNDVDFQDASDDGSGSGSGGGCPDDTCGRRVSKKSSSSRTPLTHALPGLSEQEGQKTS
Nature of the assay: FACS on 293 cells forcibly expressing mouse GPC1. The protocol: A mouse Glypican-1 expression vector or an empty vector was transfected to the 293 cell using lipofectamine 2000 and the reactivity with various clones of an anti-Glypican-1 antibody was analyzed by FACS.

Assay [4] concerns the target T3, human Glypican-3 expressed on 293 cells (pFLAG-CMV3 hGPC3) (human, UniProt P51654 25-554).
T3 construct: whole, on cells; FLAG-tagged through the vector; also called human GPC-3
Nature of the assay: FACS on 293 cells transfected with pFLAG-CMV3 hGPC3. The protocol:
Subsequently, a characteristic of various anti-Glypican-1 antibodies that reacted with Glypican-1, but not with Glypican-3 was determined to prepare a chimeric protein expression vector having an amino acid sequence of the 430th or more position of Glypican-1 substituted with that of Glypican-3 (FIG. 17). Various expression vectors were transfected into the 293 cell and the reactivity with various anti-Glypican-1 antibodies was analyzed by FACS. Consequently, since the reactivity in FACS is not recognized in three clones #17(2-60), #2(1-5), and #10(1-57), it is believed that the epitope region in these clones is present in the 430th to the 530th corresponding to an extracellular region of Glypican-1 (FIG. 18).

T3 sequence (P51654 25-554 limits assumed): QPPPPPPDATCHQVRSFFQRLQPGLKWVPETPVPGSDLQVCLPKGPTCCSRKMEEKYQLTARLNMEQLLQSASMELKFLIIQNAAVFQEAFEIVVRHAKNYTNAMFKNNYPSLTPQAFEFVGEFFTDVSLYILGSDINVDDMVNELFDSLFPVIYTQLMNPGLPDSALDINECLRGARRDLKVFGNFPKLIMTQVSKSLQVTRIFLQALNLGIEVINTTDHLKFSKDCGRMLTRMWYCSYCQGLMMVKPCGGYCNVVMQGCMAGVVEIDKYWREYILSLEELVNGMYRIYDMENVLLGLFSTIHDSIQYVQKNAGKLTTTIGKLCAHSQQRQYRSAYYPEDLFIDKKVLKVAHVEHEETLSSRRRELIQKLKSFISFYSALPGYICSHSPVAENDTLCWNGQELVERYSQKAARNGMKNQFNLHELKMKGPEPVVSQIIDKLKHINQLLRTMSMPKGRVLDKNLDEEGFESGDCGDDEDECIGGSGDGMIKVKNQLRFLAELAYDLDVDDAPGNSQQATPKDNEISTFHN

B1: anti-GPC-1 antibody 1-12 (antibody, V domains shown)
VH: AVTLDESGGGLQTPGRALSLVCKASGFTFSRYAMYWVRQAPGKGLEFVAGIGNTGRYTGYGSAVKGRATISRDSGQSTVRLQLNNLRAEDTGNYYCAKSVSPYCCDAADIDAWGHGTEVIVST
VL: ALTQPASVSANPGETVKITCSGGSSGYAYGWYQQKSPGSAPVTLLYSNNNRPSDIPSRFSGSKSGSTATLTITGVQAEDEAVYFCGSVDSSSYAGIFGAGTTLTV
notes: it was captured and detected with anti-mouse IgG and the control was mouse IgG2a; also called #4; clone 1-12
Take B1: the koff in assay [1] amounted to 0.000488 s⁻¹. The kon in assay [1] worked out at 187000 M⁻¹ s⁻¹. Moreover, the Kd in assay [2] turned out to be 2.61 nM. In addition, the binding result in assay [3] is recorded as “binds”; in assay [4], “no binding”.

In general, koff refers to the rate constant with which the complex falls apart. For orientation: kon means the rate constant with which the complex forms. For orientation: Kd means a measure of binding affinity in units of concentration.
